For orientation: EC50 means the concentration at which the effect is half-maximal.

First the molecules themselves.
T1: VSIG8 ectodomain coupled to pentamerizing rat COMP helix and alkaline phosphatase (AVEXIS prey) (rat, UniProt P0DPA2 22-263; P35444 28-72)
T1 construct: not shown: alkaline phosphatase enzyme
T1 sequence (looked up): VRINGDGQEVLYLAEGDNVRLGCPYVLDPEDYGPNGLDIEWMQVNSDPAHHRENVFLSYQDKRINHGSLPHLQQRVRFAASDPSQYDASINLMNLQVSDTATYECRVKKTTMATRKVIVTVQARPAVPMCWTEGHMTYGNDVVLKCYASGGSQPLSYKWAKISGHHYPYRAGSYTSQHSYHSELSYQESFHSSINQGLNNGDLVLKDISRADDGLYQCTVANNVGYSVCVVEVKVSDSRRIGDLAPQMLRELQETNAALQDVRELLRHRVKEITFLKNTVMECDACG

T2: VSIG3 ectodomain coupled to pentamerizing rat COMP helix and alkaline phosphatase (AVEXIS prey) (rat, UniProt Q5DX21 23-241; P35444 28-72)
T2 construct: used as conditioned medium; also called VSIG3 oligomer as prey; penta-VSIG3; not shown: alkaline phosphatase enzyme
T2 sequence (looked up): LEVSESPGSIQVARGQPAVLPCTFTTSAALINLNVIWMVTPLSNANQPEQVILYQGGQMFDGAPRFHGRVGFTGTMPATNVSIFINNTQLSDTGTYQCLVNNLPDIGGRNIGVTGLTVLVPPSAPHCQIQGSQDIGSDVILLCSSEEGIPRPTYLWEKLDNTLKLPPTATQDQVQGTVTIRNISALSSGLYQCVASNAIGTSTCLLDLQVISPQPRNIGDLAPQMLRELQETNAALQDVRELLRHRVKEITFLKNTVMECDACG

B1: Recombinant human VSIG3 Fc Chimera (Fc fusion)
chain: LEVSESPGSIQVARGQTAVLPCTFTTSAALINLNVIWMVTPLSNANQPEQVILYQGGQMFDGAPRFHGRVGFTGTMPATNVSIFINNTQLSDTGTYQCLVNNLPDIGGRNIGVTGLTVLVPPSAPHCQIQGSQDIGSDVILLCSSEEGIPRPTYLWEKLDNTLKLPPTATQDQVQGTVTIRNISALSSGLYQCVASNAIGTSTCLLDLQVISPQPRNIGLIAGIEGRMDPKSCDKTHTCPPCPAPEAEGAPSVFLFPPKPKDTLMISRTPEVTCVVVDVSHEDPEVKFNWYVDGVEVHNAKTKPREEQYNSTYRVVSVLTVLHQDWLNGKEYKCKVSNKALPAPIEKTISKAKGQPREPQVYTLPPSRDELTKNQVSLTCLVKGFYPSDIAVEWESNGQPENNYKATPPVLDSDGSFFLYSKLTVDKSRWQQGNVFSCSVMHEALHNHYTQKSLSLSPGK
notes: also called rhVSIG3; rhVSIG-3
B2: mouse anti-human VSIG3 monoclonal antibody from clone #973401 (antibody, IgG1, V domains shown)
VH: QVQLQQSAAELARPGASVKMSCKASGYTFATYTIHWVKQRPGQGLEWIGYINPSSGYTEYNQKFKDKTTLTADKSSSTAYMQLSSLTSEDSAVYYCARREVYGSGSMDYWGQGTSVTVSS
VL: QIVLTQSPALMSASPGEKVTMTCSASSSVSFMYWYHQKPRSSPKPWIYLTSNLASGVPARFSGSGSGTSYSLTISSMEAEDAATYYCQQWSSNPLTFGAGTKLELKR
notes: also called fusion 9734 clone 1
B3: VSIG8 Fc-fusion (AVEXIS bait) (Fc fusion, UniProt P0DPA2 22-263, looked up)
chain: VRINGDGQEVLYLAEGDNVRLGCPYVLDPEDYGPNGLDIEWMQVNSDPAHHRENVFLSYQDKRINHGSLPHLQQRVRFAASDPSQYDASINLMNLQVSDTATYECRVKKTTMATRKVIVTVQARPAVPMCWTEGHMTYGNDVVLKCYASGGSQPLSYKWAKISGHHYPYRAGSYTSQHSYHSELSYQESFHSSINQGLNNGDLVLKDISRADDGLYQCTVANNVGYSVCVVEVKVSDSRRIG
notes: extracellular domain; not shown: Fc
B4: mouse anti-human VSIG3 monoclonal antibody from clone #973428 (antibody, IgG1, V domains shown)
VH: EVQLVESGGDLVKPGGSLKLSCAASGFTFNSYGMSWVRQTPDKRLEWVAIISSGGSYTYYPDSVKGRFTISRDNAKNTLYLQMSSLKSEDTAMYYCARLSYYYGSSPYAMDYWGQGTSVTISS
VL: DIVLTQSPASLAVSLGQRATISCRASKSVSTSGYSYMHWYQQKPGQSPKLLIYLASNLESGVPARCSGSGSGTDFTLNIHPVEEEDAATYYCQHSRELPYTFGGGTKLEIKR
notes: also called fusion 9734 clone 28

The target in test [1] is T3, PD1 ectodomain coupled to pentamerizing rat COMP helix and alkaline phosphatase (AVEXIS prey) (rat, UniProt Q15116 25-170; P35444 28-72).
T3 construct: not shown: alkaline phosphatase enzyme
Briefly: AVEXIS, VSIG3 Fc-fusion bait, PD1-COMP-AP prey (FIG. 12B). The source says:
(§1) FIG. 12B AVEXIS was used to screen interactions between VISTA and VSIG3, VSIG8, and PD1, and results were quantified by measuring absorbance at 650 nm using the alkaline phosphatase reagent BluePhos. […] FIG. 12C.
(§2) The ectodomains of VSIG3, VISTA, and other immunoregulatory receptors were cloned into a construct containing the rat cartilage oligomeric matrix protein (COMP), which forms a covalent, pentameric coiled-coil helix oligomer (Malashkevich et al. Science. 274 (1996) 761-5), followed by an alkaline phosphatase enzyme for detection. […] Conditioned media containing the oligomeric prey protein fused to the COMP helical oligomer and alkaline phosphatase was incubated and washed, and the interaction was quantitatively measured by detection of alkaline phosphatase activity using the BLUEPHOS reagent (KPL/Sera Care, Milford, Mass.).

Test [2] has as its target T4, Recombinant human VISTA Fc Chimera (human (homo sapiens)).
T4 construct: also called rhVISTA; VISTA-Fc bait
Nature of the test: ELISA, rhVISTA coated at 2 µg/mL, biotin-labelled rhVSIG3 titrated, streptavidin-HRP (FIG. 1A). On the technique in general: ELISA stands for enzyme-linked immunosorbent assay.
From the text: The non-specific binding is subtracted and in all cases was less than 5% of the total signal.

Test [3] concerns the target T1, VSIG8 ectodomain coupled to …. Briefly: AVEXIS, VSIG3 Fc-fusion bait, VSIG8-COMP-AP prey (FIG. 12B).
From the text: as §1, §2

Test [4] has as its target B1. Briefly: SPR (Biacore), VSIG3-Fc immobilised, antibody as analyte (FIG. 14). Here is the method: The affinity of these blocking antibodies to purified recombinant VSIG3 was measured by surface plasmon resonance (SPR) using a Biacore T200 in two assay orientations. […] Dilutions of antibody were then flowed over the surface and the double reference subtracted data fit to a 1:1 Langmuir binding model with Biacore T200 Evaluation Software version 3.1 (FIG. 14). In a separate assay, a fusion protein containing protein A/G/L (Novus Biologicals, Littleton, Colo.) was covalently immobilized to the surface of a CM5 chip by standard amine coupling chemistry. Antibody was captured, followed by dilutions of VSIG3 His-fusion. Double reference subtracted data were fit to a 1:1 Langmuir binding model as described above (FIG. 15).

Test [5] deals with T2, VSIG3 ectodomain coupled to …. Briefly: AVEXIS, VSIG8 Fc-fusion bait, VSIG3-COMP-AP prey (FIG. 12B).
From the text: as §1, §2

For B1, the binding result in test [1] and in test [3] was “no binding” in each case. Besides, in test [2], the EC50 was around 0.25 µg/mL. For the molecule B2, in test [4], the binding result is on record as “binds”.

For the molecule B3, in test [5], the binding result was “no binding”. Regarding B4, the binding result in test [4] is listed as “binds”.

The values are drawn from patent US20190194322A1 (BIO TECHNE, published 2019).
